This note sets out measurements from PMC11789342, “5-Aminolevulinic acid activates the MdWRKY71-MdMADS1 module to enhance anthocyanin biosynthesis in apple”.

The target of this series is MdWRKY71 (Malus x domestica, UniProt A0A7S5AU16 1-327). In words: EMSA; LightShift Chemiluminescent EMSA Kit per manufacturer; buffer, salt, pH and temperature not stated. To be noted: protein: recombinant; tags: His (pET32a); label: biotin. In general terms: Mobility shift assays separate free from complexed probe on a gel.
Sequence of MdWRKY71 (A0A7S5AU16 entry or part of it): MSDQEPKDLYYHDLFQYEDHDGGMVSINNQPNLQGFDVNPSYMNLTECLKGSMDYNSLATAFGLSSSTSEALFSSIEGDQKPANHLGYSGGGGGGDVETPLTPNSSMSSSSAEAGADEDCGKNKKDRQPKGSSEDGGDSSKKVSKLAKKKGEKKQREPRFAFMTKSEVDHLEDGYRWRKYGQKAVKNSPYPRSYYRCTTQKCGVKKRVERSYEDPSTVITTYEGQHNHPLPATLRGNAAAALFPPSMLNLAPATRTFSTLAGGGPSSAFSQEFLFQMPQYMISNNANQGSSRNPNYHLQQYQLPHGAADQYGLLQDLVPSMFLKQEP

B1: ProMdANS W-box probe (dsDNA)
DNA 1: ATCCCAGATGTGTTGACTGTTCATGCTCAG
DNA 2: CTGAGCATGAACAGTCAACACATCTGGGAT
As for B1, the binding result is “binds”.

B2: ProMdMADS1 W-box1 mutant probe (dsDNA)
DNA 1: ACTTTGTGGCTTTAGCATTTTGAAGA
DNA 2: TCTTCAAAATGCTAAAGCCACAAAGT
Take B2: the binding result is recorded as “no binding”.

B3: ProMdDFR W-box probe (dsDNA)
DNA 1: TGGGACTCTTCATTGACTCTCCGCCACATC
DNA 2: GATGTGGCGGAGAGTCAATGAAGAGTCCCA
For B3, the binding result is recorded as “binds”.

B4: ProMdMADS1 W-box2 mutant probe (dsDNA)
DNA 1: ATTTACTATTTTTAGCATTACAATTT
DNA 2: AAATTGTAATGCTAAAAATAGTAAAT
Regarding B4, the binding result is on record as “no binding”.

B5: ProMdMADS1 W-box3 mutant probe (dsDNA)
DNA 1: CCTGAGGTTATTAACGCCAAAAGAAAA
DNA 2: TTTTCTTTTGGCGTTAATAACCTCAGG
As for B5, the binding result is listed as “no binding”.
